The values that follow come from PMC7608808 (Science Advances, 2020).

Where a chain is given by its changes, count along the chain named. Names and notes keep the numbering of the source. Like-named read-outs stand apart in the source and are kept apart here.

Data set [1] deals with the molecule itself. The data set can be described thus: cryo-EM structure.
Data set [2] deals with the molecule itself. The data set can be described thus: cryo-EM structure. This is another data set of the same source.

B1: SugC (natural protein)
chain: MAEIVLDRVTKSYPDGAGGVRAAVKEFSMTIADGEFIILVGPSGCGKSTTLNMIAGLEEITSGELRIGGERVNEKAPKDRDIAMVFQSYALYPHMTVRQNIAFPLTLAKVPKAEIAAKVEETAKILDLSELLDRKPGQLSGGQRQRVAMGRAIVRSPKAFLMDEPLSNLDAKLRVQMRAEISRLQDRLGTTTVYVTHDQTEAMTLGDRVVVMLAGEVQQIGTPDELYSSPANLFVAGFIGSPAMNFFPATRTDVGVRLPFGEVTLTPHMLDLLDKQARPENIIVGIRPEHIEDSALLDGYARIRALTFSVRADIVESLGADKYVHFTTEGAGAESAQLAELAADSGAGTNQFIARVSADSRVRTGEQIELAIDTTKLSIFDAATGLNLTRDITPTDPTEAAGPDAG
B1: the binding result in the data set “cryo-EM structure [1]” was “binds”.

B2: SugC (E164Q) (natural protein)
chain: B1 chain with E164Q
On to B2, for which the binding result in the data set “cryo-EM structure [2]” was “binds”.
